Legend:
[1] = substrate: CC1=C(CO)C2=C(C)C3(CC3)[C@@](C)(O)C(=O)C2=C1; assay: (§1) Affinity towards rat NADP-dependent AOR, leukotriene B4 12-hydroxydehydrogenase
[2] = substrate: CC1=C(CO)C2=C(C)C3(CC3)[C@](C)(O)C(=O)C2=C1; assay: as §1
[3] = substrate: CC1=CC2=C(C)C3(CC3)[C@@](C)(O)C(=O)C2=C1; assay: as §1
[4] = substrate: CC1=CC2=C(C)C3(CC3)[C@](C)(O)C(=O)C2=C1; assay: as §1

B1: Prostaglandin reductase 1 (Rattus norvegicus), P97584 (protein)
chain: MVQAKTWTLKKHFEGFPTDSNFELRTTELPPLNNGEVLLEALFLSVDPYMRVAAKKLKEGDSMMGEQVARVVESKNSAFPTGTIVVALLGWTSHSISDGNGLRKLPAEWPDKLPLSLALGTVGMPGLTAYFGLLDICGLKGGETVLVNAAAGAVGSVVGQIAKLKGCKVVGTAGSDEKVAYLKKLGFDVAFNYKTVKSLEEALRTASPDGYDCYFDNVGGEFSNTVILQMKTFGRIAICGAISQYNRTGPCPPGPSPEVIIYQQLRMEGFIVTRWQGEVRQKALTDLMNWVSEGKIRYHEYITEGFEKMPAAFMGMLKGDNLGKTIVKA
Km [1]: 213 µM
Km [2]: 243 µM
Km [3]: 538 µM
Km [4]: 465 µM
